Key:
rF8 (HSA fragment F8) = rF8 (HSA fragment F8) (Homo sapiens, UniProt P02768); assay: graphene oxide fluorescence recovery (Cy5 aptasensor); GO-quenched aptamer; protein 0.37-1500 ug/mL; sigmoidal, R2 > 0.99; response comparable to full-length rHSA; PBS pH 7.4, graphene oxide (15 uL of 5 mg/mL) + Cy5-H8 (15 uL of 5 uM) preincubated 5 min at room temperature, 200 uL final volume, 30 min with protein in the dark, ex 630/em 670 nm; settings: protein: recombinant; tags: His-tag; label: 5'-Cy5
rHSA (E. coli) = rHSA (E. coli) (Homo sapiens, UniProt P02768 25-609); assay: graphene oxide fluorescence recovery (Cy5 aptasensor); GO-quenched aptamer; protein 0.37-1500 ug/mL; sigmoidal, R2 > 0.99; PBS pH 7.4, graphene oxide (15 uL of 5 mg/mL) + Cy5-H8 (15 uL of 5 uM) preincubated 5 min at room temperature, 200 uL final volume, 30 min with protein in the dark, ex 630/em 670 nm; settings: protein: recombinant; tags: His-tag; label: 5'-Cy5
rHSA (rice) = rHSA (rice) (Homo sapiens, UniProt P02768 25-609); assay: graphene oxide fluorescence recovery (Cy5 aptasensor); GO-quenched aptamer; protein 0.37-1500 ug/mL; sigmoidal, R2 > 0.99; lower fluorescence than E. coli proteins; PBS pH 7.4, graphene oxide (15 uL of 5 mg/mL) + Cy5-H8 (15 uL of 5 uM) preincubated 5 min at room temperature, 200 uL final volume, 30 min with protein in the dark, ex 630/em 670 nm; settings: protein: commercial; label: 5'-Cy5

Measured: binding result

rHSA (E. coli), sequence (P02768 25-609): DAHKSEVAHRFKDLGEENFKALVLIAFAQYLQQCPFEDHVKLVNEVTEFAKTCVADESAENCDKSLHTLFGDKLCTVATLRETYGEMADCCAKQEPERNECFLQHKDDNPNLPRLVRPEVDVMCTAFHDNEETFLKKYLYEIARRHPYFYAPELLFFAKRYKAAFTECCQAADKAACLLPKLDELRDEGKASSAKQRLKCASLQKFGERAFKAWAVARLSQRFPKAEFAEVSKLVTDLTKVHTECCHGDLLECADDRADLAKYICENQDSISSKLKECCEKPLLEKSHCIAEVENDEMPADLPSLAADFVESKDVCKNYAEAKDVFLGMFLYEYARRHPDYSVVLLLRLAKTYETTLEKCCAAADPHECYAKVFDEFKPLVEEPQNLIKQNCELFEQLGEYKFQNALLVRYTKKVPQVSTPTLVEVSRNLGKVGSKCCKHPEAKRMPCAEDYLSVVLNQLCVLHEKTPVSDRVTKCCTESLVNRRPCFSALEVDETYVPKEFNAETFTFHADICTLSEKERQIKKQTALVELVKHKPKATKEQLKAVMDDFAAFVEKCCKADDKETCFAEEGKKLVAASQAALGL
rHSA (rice), sequence (P02768 25-609): as above
rF8 (HSA fragment F8), sequence (P02768 520-609): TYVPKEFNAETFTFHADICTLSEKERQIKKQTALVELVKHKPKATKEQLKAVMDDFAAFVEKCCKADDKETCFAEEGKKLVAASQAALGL

B1: H8 aptamer (ssDNA)
DNA: ATACCAGCTTATTCAATTCCCCCGGCTTTGGTTTAGAGGTAGTTGCTCATTACTTGTACGCTCCGGATGAGATAGTAAGTGCAATCT
binds: all assays above

— publication PMC12290929, “Analytical and Structural Evaluation of Recombinant Human Serum Albumin and Fragment F8 for Aptamer-Based Urinary Biomarker Detection”
